± gives the standard deviation.

A short description of this series: protein stability index of a GFP-peptide fusion (GPS, HEK-293T) (PSI 1-6); higher = more stable.
[1] abbreviates: treatment: DMSO, c terminus: a fixed tail appended.
[2] abbreviates: treatment: MLN4924 1 uM, 8 h, c terminus: a fixed tail appended.
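Further: 24-mer peptide tiles fused after GFP, lentivirally expressed, FACS-sorted into six equal bins by GFP/DsRed ratio, decoded by Illumina sequencing, PSI is the read-weighted mean bin number.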

In the case of LMSAQTITSETTSTTTTTHITKTV [EPB41L3], the protein stability index reads like this: under setting [1], 4.5 ± 0.26; under setting [2], 4.68 ± 0.14.

For LNDAKRELRFLLVYLHGDDHQDSD [FAF2], the protein stability index runs as follows: under setting [1], 2.31 ± 0.36; under setting [2], 2.23 ± 0.25.

On to LNHGASVNNTTLTNSTPLRAACFD [FEM1C], for which the protein stability index stood at 3.98 ± 0.31 under setting [1] and 3.94 ± 0.14 under setting [2].

For the sequence LNKKLKSYSLSRKKIVHYTCFDQR [CDC14A], the protein stability index is 2.39 ± 0.26 under setting [1] and 2.35 ± 0.3 under setting [2].

Consider LNMRSTYAKLAAVAVFFIMLIVYV [SEC22B], for which the protein stability index stood at 3.14 ± 0.36 under setting [1] and 3.19 ± 0.23 under setting [2].

Take LNQIVTEPDANFPQFLHEGLSKPV [FAM104B]: the protein stability index worked out at 3.86 ± 0.039 under setting [1] and 3.7 ± 0.42 under setting [2].

For LPECLEYEEEFDYETESETESEIE [GNAS], the protein stability index by setting is: under setting [1], 5.3 ± 0.15; under setting [2], 5.26 ± 0.23.

As to LPPEKGREVAKELGIPYYETSVVA [RHOBTB2], the protein stability index is 3.55 ± 0.24 under setting [1] and 3.55 ± 0.18 under setting [2].

Regarding LPPSPPPSPASEQTVTVEEAAGGE [MAP2], the protein stability index runs as follows: under setting [1], 5.4 ± 0.27; under setting [2], 5.51 ± 0.16.

LPPVAVRSLQDLARIAIRGTIKKI [PCMTD2]: the protein stability index came out at 3.2 ± 0.34 under setting [1] and 3.12 ± 0.22 under setting [2].

On to LPQEHSQIYHCTKRKEEECSTTDH [TBX5], for which the protein stability index is, setting by setting: under setting [1], 5.39 ± 0.21; under setting [2], 5.49 ± 0.11.

For LPWQGLKADTLKERYQKIGDTKRA [CSNK1G3], the protein stability index amounted to 3.77 ± 0.11 under setting [1] and 3.76 ± 0.41 under setting [2].

As to LPYPKDVYSVSVDQKERCIIVRTT [DPCD], the protein stability index worked out at 2.21 ± 0.22 under setting [1] and 2.18 ± 0.22 under setting [2].

Turning to LQIELGKCKAEHDQLLLNYAKKES [LMNB1], the protein stability index reads like this: under setting [1], 3.29 ± 0.24; under setting [2], 3.33 ± 0.33.

As for LQSYQAEIIELRRTVNALEIELQA [KRT33B], the protein stability index runs as follows: under setting [1], 2.59 ± 0.54; under setting [2], 2.27 ± 0.3.

Turning to LQVAGLSEEQLQEPITGWRKTVCH [LPCAT4], the protein stability index reads like this: under setting [1], 3.29 ± 0.25; under setting [2], 3.47 ± 0.12.

For the sequence LRLLVESDINSIRRILDELTLCKS [KRT34], the protein stability index came out at 2.22 ± 0.5 under setting [1] and 2.16 ± 0.12 under setting [2].

For LRNITNSQAPDGRRKSEAGSGAAS [CDC25B], the protein stability index worked out at 4.89 ± 0.24 under setting [1] and 5.1 ± 0.16 under setting [2].

Consider LRPPHTSRGTSQTPNASSPGNPTA [LPCAT4], for which the protein stability index runs as follows: under setting [1], 4.76 ± 0.17; under setting [2], 4.85 ± 0.21.

Take LRQQQHKQNKQVLGYCLLLMLAGM [DNAJC4]: the protein stability index runs as follows: under setting [1], 2.28 ± 0.48; under setting [2], 2.41 ± 0.18.

With LSALLQFGVTYLEDYSAEYIIQQG [BCL2L13], the protein stability index came out at 2.9 ± 0.42 under setting [1] and 2.43 ± 0.55 under setting [2].

In the case of LSANLHGGAVVANYPYDKSFEHRV [CPN1], the protein stability index under setting [1] came out at 3.46 ± 0.27 and the protein stability index under setting [2] was found to be 3.5 ± 0.28.

As to LSDREVVNLFLHFTVNPKPRVEYI [BTBD1], the protein stability index under setting [1] turned out to be 2.98 ± 0.73 and the protein stability index under setting [2] worked out at 2.5 ± 0.26.

Consider LSEDYNKMTPVKNYQAHQSRVTMI [WDFY2], for which the protein stability index reads like this: under setting [1], 2.71 ± 0.12; under setting [2], 2.83 ± 0.13.

For LSEKEINAREESLVEELSPASEKK [BCL2L13], the protein stability index runs as follows: under setting [1], 5.42 ± 0.46; under setting [2], 5.58 ± 0.15.

On to LSFYDAERHCHLYTFHARFGEVRP [TRIM35], for which the protein stability index reads like this: under setting [1], 2.34 ± 0.54; under setting [2], 2.3 ± 0.55.

Consider LSLQDQVDTLTFQSQSLRDRARRF [MTUS2], for which the protein stability index is, setting by setting: under setting [1], 3.91 ± 0.26; under setting [2], 3.84 ± 0.18.

Regarding LSRCEFQRAKCKDPQLEIAYRGNC [SMOC2], the protein stability index is 3.23 ± 0.42 under setting [1] and 3.14 ± 0.23 under setting [2].

Sequence LSRHSKGLQILGHTLRASMRELGL [KCNA4] had a protein stability index under setting [1] of 2.25 ± 0.21 and a protein stability index under setting [2] of 2.25 ± 0.024.

Regarding LSSAPSSRAEPIRTTVFQYPVGWP [ZMAT5], the protein stability index by setting is: under setting [1], 2.86 ± 0.22; under setting [2], 2.94 ± 0.19.

LTADSRKSHLIFPQPNYADTLISQ [PCDHGA10]: the protein stability index is, setting by setting: under setting [1], 3.17 ± 0.17; under setting [2], 3.11 ± 0.27.

Regarding LTASTMEILLDFVYTETVHVTVEN [KLHL12], the protein stability index is 2.9 ± 0.79 under setting [1] and 3.29 ± 1.4 under setting [2].

Turning to LTICYPEYAGSNTYEEAAAYIQCQ [GNAI1], the protein stability index is, setting by setting: under setting [1], 2.46 ± 0.25; under setting [2], 2.43 ± 0.46.

As for LTKASLKPRGCSKPPWRPPGGKL [SPACA9], the protein stability index (treatment: DMSO, c terminus: native) amounted to 2.55 ± 0.65 and the protein stability index (treatment: MLN4924 1 uM, 8 h, c terminus: native) was determined as 3.35 ± 1.

Consider LTPGFSDNAIMLFSPDFTLRNTLK [FAN1], for which the protein stability index turned out to be 2.4 ± 0.3 under setting [1] and 2.65 ± 0.54 under setting [2].

With LTSMRRLSSIKRDTNSIAKAIKAR [STX11], the protein stability index was 3.4 ± 0.26 under setting [1] and 3.64 ± 0.34 under setting [2].

On to LVAEVPKEHWTPEGHSIVGFAMYY [SAT1], for which the protein stability index reads like this: under setting [1], 2.81 ± 0.58; under setting [2], 2.57 ± 0.39.

Consider LVENAKNFPQCVLEISDQEVLEWY [EFHC1], for which the protein stability index by setting is: under setting [1], 2.96 ± 0.23; under setting [2], 2.87 ± 0.23.

On to LVLKAHHDIVRFLVQLDDYRFASA [WDR41], for which the protein stability index runs as follows: under setting [1], 2.96 ± 0.52; under setting [2], 2.96 ± 0.67.

For LVQLRGRLTSQDWERVHLIVAGGY [ALG2], the protein stability index runs as follows: under setting [1], 2.03 ± 0.62; under setting [2], 2.44 ± 0.58.

For the sequence LVSQSNDLSSLRAKYPHDVVNHLS [SPACA9], the protein stability index came out at 3.09 ± 0.19 under setting [1] and 3.19 ± 0.21 under setting [2].

Regarding LWENTRFTDCSFFVRGQEFKAHKS [SPOPL], the protein stability index runs as follows: under setting [1], 2.74 ± 0.32; under setting [2], 2.98 ± 0.25.

LWSLFVPFTVYQVRWLRPVHRQLG [AUP1]: the protein stability index was 2.82 ± 0.59 under setting [1] and 2.59 ± 0.69 under setting [2].

Consider LYIQSHYQLELQCCIDWTHVTDPL [SMG5], for which the protein stability index by setting is: under setting [1], 3.31 ± 0.46; under setting [2], 3.06 ± 0.42.

As for LYYFRLAARSPQGLGASTAEISAR [PTPRD], the protein stability index is, setting by setting: under setting [1], 2.34 ± 0.42; under setting [2], 2.33 ± 0.39.

For MAEPSAATQSHSISSSSFGAEPSA [RTN3], the protein stability index came to 5.06 ± 0.096 under setting [1] and 5.17 ± 0.13 under setting [2].

Consider MAGLQRLASHLPVGVMLPHNTTEA [ZC2HC1C], for which the protein stability index reads like this: under setting [1], 3.5 ± 0.13; under setting [2], 3.36 ± 0.27.

Take MAHGYGEESEEERGLEPGKGRHHR [CHGB]: the protein stability index under setting [1] amounted to 5.22 ± 0.27 and the protein stability index under setting [2] worked out at 5.34 ± 0.11.

MDALQLANSAFAVDLFKQLCEKEP [SERPINB5] displayed a protein stability index under setting [1] of 3.5 ± 0.36 and a protein stability index under setting [2] of 3.53 ± 0.16.

MDVPGPVSRRAAAAAATVLLRTAR [SLC19A2] had a protein stability index under setting [1] of 3.29 ± 0.23 and a protein stability index under setting [2] of 3.42 ± 0.089.

As to MECQPESSISHRFHKDCASRVNNA [EHMT1], the protein stability index worked out at 4.28 ± 0.38 under setting [1] and 4.15 ± 0.39 under setting [2].

MERVNETVVREVIFLGFSSLARLQ [OR10K2]: the protein stability index under setting [1] was 2.64 ± 0.65 and the protein stability index under setting [2] amounted to 2.4 ± 0.5.

With MFPLHLAALNAHSDCCRKLLSSGF [ANKRD44], the protein stability index amounted to 2.57 ± 0.4 under setting [1] and 2.15 ± 0.31 under setting [2].

Turning to MGHIKPDLIDVDLIRGSTFAKAKP [PHTF1], the protein stability index by setting is: under setting [1], 3.56 ± 0.24; under setting [2], 3.67 ± 0.35.

As for MHKHNETSQKIAARAFAQRYLADL [RSPH3], the protein stability index is, setting by setting: under setting [1], 2.63 ± 0.094; under setting [2], 2.84 ± 0.22.

For MIVDLLSEKKTISFQGCMAQLFMD [OR4A15], the protein stability index is, setting by setting: under setting [1], 2.74 ± 0.52; under setting [2], 2.42 ± 0.46.

Regarding MKMEEAVGKVEELIESEAPPKASE [C18orf25], the protein stability index under setting [1] amounted to 5.59 ± 0.15 and the protein stability index under setting [2] was found to be 5.48 ± 0.57.

The sequence MKRSKELITKNHSQEETSILRCWK [RNF180] yielded a protein stability index under setting [1] of 3.11 ± 0.24 and a protein stability index under setting [2] of 3.19 ± 0.058.

In turn, MLGKYNTPVSYRMAKTLVFSKVKT [ACSBG2] returned a protein stability index under setting [1] of 2.46 ± 0.31 and a protein stability index under setting [2] of 2.35 ± 0.23.

For MLLQHQICKEVQAEQEPTRKLFEV [SPAG8], the protein stability index runs as follows: under setting [1], 2.79 ± 0.26; under setting [2], 2.78 ± 0.23.

For MLPGVLAGVSAEESWAGPQPLETL [SCNN1D], the protein stability index came to 3.38 ± 0.34 under setting [1] and 3.53 ± 0.37 under setting [2].

With MMHGGSYSLTTSSTHKRSSLRKVK [RAB40B], the protein stability index is, setting by setting: under setting [1], 4.15 ± 0.25; under setting [2], 4.35 ± 0.15.

As for MPPATGGGLAESELRPRRGRCGPQ [POMT2], the protein stability index is 4.59 ± 0.17 under setting [1] and 4.61 ± 0.18 under setting [2].

Consider MQNGAGASRTSTIFLNGNRERPLN [TNXB], for which the protein stability index by setting is: under setting [1], 3.7 ± 0.49; under setting [2], 4.06 ± 0.2.

Turning to MSQALKATFSGFKKEQRRLGIPKN [ETS2], the protein stability index runs as follows: under setting [1], 2.98 ± 0.29; under setting [2], 3.08 ± 0.3.

MSSVQQQPPPPRRVTNVGSLLLTP [WASL]: the protein stability index runs as follows: under setting [1], 3.7 ± 0.28; under setting [2], 3.75 ± 0.3.

Consider MTEAALALSEQKAQDLGELLATAE [LRRC45], for which the protein stability index reads like this: under setting [1], 5.16 ± 0.13; under setting [2], 5.08 ± 0.13.

Take MTTHPLTNNNIKQRLIKKVQEAVL [GOLPH3]: the protein stability index turned out to be 2.79 ± 0.65 under setting [1] and 2.65 ± 0.59 under setting [2].

Take MTVEEIYKDRQKFSEQVFKVASSD [FLOT1]: the protein stability index by setting is: under setting [1], 3.83 ± 0.21; under setting [2], 3.61 ± 0.31.

In the case of MYEMLIGYPPFCSETPQETYRKVM [STK38L], the protein stability index is, setting by setting: under setting [1], 2.2 ± 0.33; under setting [2], 2.1 ± 0.3.

On to NAAYFVGKWMKKFPESETKECPFR [SERPINB5], for which the protein stability index is 2.77 ± 0.29 under setting [1] and 2.98 ± 0.47 under setting [2].

Sequence NEIESRHRELLRLESRIRDVHELF [STX11] yielded a protein stability index under setting [1] of 3.54 ± 0.21 and a protein stability index under setting [2] of 3.65 ± 0.22.
